The chains are these.
T1: Axl protein (human, UniProt P30530 26-451)
T1 construct: extracellular domain; also called human Axl; hAxl
T1 sequence (looked up): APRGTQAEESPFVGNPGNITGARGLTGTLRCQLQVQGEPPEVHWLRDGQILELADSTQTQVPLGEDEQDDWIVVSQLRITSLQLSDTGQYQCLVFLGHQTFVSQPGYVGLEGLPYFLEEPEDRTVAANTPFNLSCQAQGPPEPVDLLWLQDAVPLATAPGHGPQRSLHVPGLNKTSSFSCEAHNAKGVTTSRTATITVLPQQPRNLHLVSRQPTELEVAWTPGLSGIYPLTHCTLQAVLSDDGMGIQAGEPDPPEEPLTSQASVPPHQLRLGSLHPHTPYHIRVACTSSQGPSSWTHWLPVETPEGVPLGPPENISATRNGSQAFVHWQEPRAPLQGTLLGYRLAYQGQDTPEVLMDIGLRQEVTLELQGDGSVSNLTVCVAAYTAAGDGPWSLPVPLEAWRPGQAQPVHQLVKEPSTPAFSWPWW

B1: LC-V029D (antibody, V domains shown)
VH: EVQLVQSGAEVKKPGATVKISCKVSGYSFTGHTMNWIRQPPGKGLEWIGLIKPSNGGTSYNQKFKGRVTISADKSISTAYLQWSSLKASDTAMYYCAHGHYESYFAMDYWGQGTLVTVSS
VL: DIQMTQSPSSLSASVGDRVTITCKASQDDSSAVAWYQQKPGQAPRLLIYWASTRHTGVPSRFSGSGSGTEFTLTISSLQPDDFATYYCQEHFSTPLTFGQGTKVEIK
B2: LC-A032L (antibody, V domains shown)
VH: B1 VH
VL: B1 VL with D29V, A32L
B3: LC-A034N (antibody, V domains shown)
VH: B1 VH
VL: B1 VL with D29V, A34N
B4: LC-F092C (antibody, V domains shown)
VH: B1 VH
VL: B1 VL with D29V, F92C
B5: LC-T094C (antibody, V domains shown)
VH: B1 VH
VL: B1 VL with D29V, T94C
B6: LC-H091T (antibody, V domains shown)
VH: B1 VH
VL: B1 VL with D29V, H91T
B7: LC-A034D (antibody, V domains shown)
VH: B1 VH
VL: B1 VL with D29V, A34D
B8: LC-H091S (antibody, V domains shown)
VH: B1 VH
VL: B1 VL with D29V, H91S
B9: LC-F092G (antibody, V domains shown)
VH: B1 VH
VL: B1 VL with D29V, F92G
B10: LC-F092E (antibody, V domains shown)
VH: B1 VH
VL: B1 VL with D29V, F92E
B11: LC-F092S (antibody, V domains shown)
VH: B1 VH
VL: B1 VL with D29V, F92S
B12: LC-F092N (antibody, V domains shown)
VH: B1 VH
VL: B1 VL with D29V, F92N
B13: LC-W050F (antibody, V domains shown)
VH: B1 VH
VL: B1 VL with D29V, W50F
B14: LC-V029N (antibody, V domains shown)
VH: B1 VH
VL: B1 VL with D29N
B15: LC-A034Q (antibody, V domains shown)
VH: B1 VH
VL: B1 VL with D29V, A34Q
B16: LC-V029W (antibody, V domains shown)
VH: B1 VH
VL: B1 VL with D29W
B17: LC-A051I (antibody, V domains shown)
VH: B1 VH
VL: B1 VL with D29V, A51I
B18: LC-H091Y (antibody, V domains shown)
VH: B1 VH
VL: B1 VL with D29V, H91Y
B19: LC-A032M (antibody, V domains shown)
VH: B1 VH
VL: B1 VL with D29V, A32M
B20: LC-V029G (antibody, V domains shown)
VH: B1 VH
VL: B1 VL with D29G
B21: LC-H091V (antibody, V domains shown)
VH: B1 VH
VL: B1 VL with D29V, H91V
B22: LC-F092D (antibody, V domains shown)
VH: B1 VH
VL: B1 VL with D29V, F92D
B23: HC-G111H (antibody, V domains shown)
VH: B1 VH with G111H
VL: B1 VL with D29V
B24: HC-W110P (antibody, V domains shown)
VH: B1 VH with W110P
VL: B1 VL with D29V

Changes are numbered by the printed parent chain. In names and notes the source's numbering stands.

The first assay addresses T1, Axl protein. The assay can be described thus: ELISA, 1:9 dilution, pH 6.0 over pH 7.4.
Turning to B1, the “Affinity ELISA CPE mutant ratio (1:9, pH 6.0/7.4)” value was 2.68 ratio.
Still for that read-out and setting: next, B2: 2.27 ratio; B3: 2.4 ratio; B4: 4.58 ratio.
Regarding B5, the “Affinity ELISA CPE mutant ratio (1:9, pH 6.0/7.4)” value was found to be 1.77 ratio.
Take B6: the “Affinity ELISA CPE mutant ratio (1:9, pH 6.0/7.4)” value amounted to 3.78 ratio.
Still for that read-out and setting: next, B7: 2.6 ratio; B8: 1.34 ratio; B9: 4.76 ratio.
As for B10, the “Affinity ELISA CPE mutant ratio (1:9, pH 6.0/7.4)” value stood at 2 ratio.
Still for that read-out and setting: next, B11: 2.94 ratio.
As to B12, the “Affinity ELISA CPE mutant ratio (1:9, pH 6.0/7.4)” value worked out at 2 ratio.
On the same count and under the same terms, next, B13: 3.5 ratio.
The same measure, in the same setting: next, B14: 2.65 ratio; B15: 1.41 ratio.
The same measure, in the same setting: next, B16: 2.35 ratio; B17: 2.14 ratio; B18: 5.13 ratio.
As for B19, the “Affinity ELISA CPE mutant ratio (1:9, pH 6.0/7.4)” value turned out to be 2.92 ratio.
On to B20, for which the “Affinity ELISA CPE mutant ratio (1:9, pH 6.0/7.4)” value turned out to be 1.8 ratio.
B21: the “Affinity ELISA CPE mutant ratio (1:9, pH 6.0/7.4)” value is 1.17 ratio.
The same measure, in the same setting: next, B22: 2.94 ratio.

The target of another assay is T1, Axl protein. The assay can be described thus: ELISA, 1:9 dilution, pH 6.0 over pH 7.4. The source holds these as a separate data set. For orientation: An ELISA detects its analyte on a solid surface through an enzyme-linked reagent.
For B23, the “Affinity ELISA CPE mutant ratio (1:9, pH 6.0/7.4)” value is 1.79 ratio.
Still for that read-out and setting: next, B24: 2.15 ratio.

The target of another assay is T1, Axl protein. Put plainly: ELISA, 1:3 dilution, pH 6.0 over pH 7.4.
Turning to B1, the “Affinity ELISA CPE mutant ratio (1:3, pH 6.0/7.4)” value is 2.88 ratio.
Same read-out and setting: next, B2: 1.98 ratio.
Still for that read-out and setting: next, B3: 2.63 ratio; B4: 3.86 ratio.
The same measure, in the same setting: next, B5: 1.42 ratio.
On to B6, for which the “Affinity ELISA CPE mutant ratio (1:3, pH 6.0/7.4)” value turned out to be 3.78 ratio.
The same measure, in the same setting: next, B7: 3 ratio; B8: 1.76 ratio.
Same read-out and setting: next, B9: 3.69 ratio.
The same measure, in the same setting: next, B10: 1.76 ratio.
Take B11: the “Affinity ELISA CPE mutant ratio (1:3, pH 6.0/7.4)” value is 3.18 ratio.
Still for that read-out and setting: next, B12: 1.93 ratio; B13: 2.25 ratio; B14: 2.6 ratio.
Turning to B15, the “Affinity ELISA CPE mutant ratio (1:3, pH 6.0/7.4)” value turned out to be 2 ratio.
As for B16, the “Affinity ELISA CPE mutant ratio (1:3, pH 6.0/7.4)” value came out at 2.31 ratio.
In the case of B17, the “Affinity ELISA CPE mutant ratio (1:3, pH 6.0/7.4)” value was 2.24 ratio.
The same measure, in the same setting: next, B18: 3.93 ratio; B19: 4.76 ratio; B20: 1.94 ratio.
Still for that read-out and setting: next, B21: 4.13 ratio; B22: 2.97 ratio.

The target of a further assay is T1, Axl protein. The assay can be described thus: ELISA, 1:3 dilution, pH 6.0 over pH 7.4. The source holds these as a separate data set.
For the molecule B23, the “Affinity ELISA CPE mutant ratio (1:3, pH 6.0/7.4)” value was determined as 1.06 ratio.
For B24, the “Affinity ELISA CPE mutant ratio (1:3, pH 6.0/7.4)” value turned out to be 6.49 ratio.

(Values after patent US20190177417A1 (BIOATLA, published 2019).)
